Measurements published in patent publication US20240307439A1 (ARCELLX, published 2024).
Values belong to the binder of their own block, whether it stands above or below them.

Tests used:
[1] = molecular target: T1, BCMA-binding CAR (bc40); experiment: flow cytometry, CAR-transduced Jurkat cells incubated with 0.5 µg Adapter, stained with anti-HIS PE
T1 construct: D domain CAR on Jurkat reporter cells or T cells; The entry includes signal peptide and FLAG tag; also called BCMA-specific D domain CAR; CTsp-Flag-GSlinker-bc40-GSlinker-CD8H-TM-41BB-CD3ζ
T1 sequence (chain, as listed by the source): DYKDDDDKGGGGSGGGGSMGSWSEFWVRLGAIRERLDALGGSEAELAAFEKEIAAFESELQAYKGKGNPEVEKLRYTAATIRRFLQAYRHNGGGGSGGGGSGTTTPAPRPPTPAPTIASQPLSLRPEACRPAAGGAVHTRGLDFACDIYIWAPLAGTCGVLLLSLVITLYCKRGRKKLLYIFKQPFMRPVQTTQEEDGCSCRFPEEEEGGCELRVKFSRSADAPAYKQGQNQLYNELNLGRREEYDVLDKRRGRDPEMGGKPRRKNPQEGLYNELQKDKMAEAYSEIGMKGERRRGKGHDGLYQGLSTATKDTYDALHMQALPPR

[2] = molecular target: T2, BCMA on tumor cells (NCI-H929, U266, MM.1S, NALM6-BCMA) (Homo sapiens (Human), UniProt Q02223 1-184); experiment: flow cytometry of NALM6-BCMA tumor cells flushed from femurs of mice after I.V. Adapter administration
T2 construct: also called BCMA+ tumor target
T2 sequence: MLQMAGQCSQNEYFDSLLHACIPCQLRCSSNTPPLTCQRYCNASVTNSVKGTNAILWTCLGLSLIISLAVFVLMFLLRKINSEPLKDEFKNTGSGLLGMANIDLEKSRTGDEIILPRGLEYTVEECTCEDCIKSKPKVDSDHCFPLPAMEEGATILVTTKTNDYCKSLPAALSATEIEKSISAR

[3] = molecular target: T3, CD123-Fc (Homo sapiens (Human), UniProt P26951 19-305); experiment: flow cytometry, Adapter held on af03-CAR Jurkat cells, CD123-Fc detected with Anti-Fc A488
T3 construct: not shown: Fc part not described
T3 sequence: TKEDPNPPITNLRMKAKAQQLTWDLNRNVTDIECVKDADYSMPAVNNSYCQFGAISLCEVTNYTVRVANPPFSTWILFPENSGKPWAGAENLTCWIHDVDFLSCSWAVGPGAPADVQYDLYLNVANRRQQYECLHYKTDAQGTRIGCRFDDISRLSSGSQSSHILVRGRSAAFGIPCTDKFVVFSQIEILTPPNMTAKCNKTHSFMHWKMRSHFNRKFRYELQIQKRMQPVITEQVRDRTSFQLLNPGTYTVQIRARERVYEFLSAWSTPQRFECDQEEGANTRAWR
Procedure: (§1) 10⁵ Jurkat NFAT-Luciferase transduced with an AFP (p26)-binding CAR (af03) were incubated with a total of 0.5 μg of Adapter proteins at various ratios of the BCMA- to CD123-specific Adapters (4° C. for 20 minutes), washed, and then incubated with CD123-Fc and biotinylated BCMA (0.5 μg of each) (4° C. for 20 minutes), washed, then binding detected with Anti-Fc A488 and Streptavidin-PE. FIG. 8A presents a flow cytometric analysis of CD123-binding and BCMA-binding to their respective target proteins, FIG. 8B provides a comparison of mean fluorescence intensity (MFI) of A488 MFI (CD123-binding, left axis) and PE MFI (BCMA-binding, right axis) flow cytometric data presented in FIG. 8A.
(§2) 10⁵ Jurkat NFAT-Luciferase transduced with a p26-binding CAR (af03, SEQ ID NO: 1092) were incubated with a total of […] of Adapters (SEQ ID NO: 1084, SEQ ID NO: 1085) at the indicated ratios at 4° C. for 20 minutes, washed, and then incubated with CD123-Fc and biotinylated BCMA (0.5 μg of each/(4° C. for 20 minutes), washed, then binding detected with Anti-Fc A488 and Streptavidin-PE. FIG. 8A presents a flow cytometric analysis of CD123-binding and BCMA-binding to their respective target proteins, FIG. 8B provides a comparison of mean fluorescence intensity (MFI) of A488 MFI (CD123-binding, left axis) and PE MFI (BCMA-binding, right axis) flow cytometric data presented in FIG. 8A.

[4] = molecular target: T4, biotinylated BCMA (Homo sapiens (Human), UniProt Q02223 1-54, biotinylated); experiment: flow cytometry, Adapter held on af03-CAR Jurkat cells, biotinylated BCMA detected with Streptavidin-PE
T4 sequence: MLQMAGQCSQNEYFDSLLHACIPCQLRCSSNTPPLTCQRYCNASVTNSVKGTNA
Procedure: as §1, §2

binding result [2]: binds
B2: BCMA specific Adapter (bc98-p26-bc98) (designed binder)
chain: MGSWSEFWARLGAIRERLDALGGSEAELAAFEKEIAAFESELQAYKGKGNPEVEKLRYTAGTIKRFLQAYRHNGGGGDGGGGSGGGGSGLEKCFQTENPLECQDKGEEELQKYIQESQALAKRSCGLFQKLGEYYLQNAFLVAYTKKAPQLTSSELMAITRKMAATAATCCQLSEDKLLACGEGAADIIIGHLCIRHEMTPVNPGVGQCCTSSYANRRPCFSSLVVDETYVPPAFSDDKFIFHKDLCQAQGVALQTMKQEFLINLVKQKPQITEEQLEAVIADFSGLLEKCCQGQEQEVCFAEEGQKLISKTRAALGVGGGGSGGGGSGGGGSMGSWSEFWARLGAIRERLDALGGSEAELAAFEKEIAAFESELQAYKGKGNPEVEKLRYTAGTIKRFLQAYRHN
notes: also called SPRX-BCMA; sparX-BCMA

binding result [4]: binds
B4: bc40-p26 Adapter (designed binder)
chain: DEHHHHHHHHHHKLENLYFQGGGGGSMGSWSEFWVRLGAIRERLDALGGSEAELAAFEKEIAAFESELQAYKGKGNPEVEKLRYTAATIRRFLQAYRHNGGGGSGGGGSGGGGSLEKCFQTENPLECQDKGEEELQKYIQESQALAKRSCGLFQKLGEYYLQNAFLVAYTKKAPQLTSSELMAITRKMAATAATCCQLSEDKLLACGEGAADIIIGHLCIRHEMTPVNPGVGQCCTSSYANRRPCFSSLVVDETYVPPAFSDDKFIFHKDLCQAQGVALQTMKQEFLINLVKQKPQITEEQLEAVIADFSGLLEKCCQGQEQEVCFAEEGQKLISKTRAALGV
notes: Soluble fusion: HIS tag, bc40 D domain, linker, full-length p26; also called bc40-AFP (p26) Adapter; HIS tag-BCMA(bc40)-p26

binding result [1]: binds
B5: Cg06-BCMA Adapter (designed binder)
chain: DEMGSWDEFGRRLYAIEWRLYALGGSEAELAAFEKEIAAFESELQAYKGKGNPEVEKLREIAAVIRSNLQAYRHNGGGGSGGGGSGGGGSGMLQMAGQCSQNEYFDSLLHACIPCQLRCSSNTPPLTCQRYCNASVTNSVKGTNAGGGGSGGGGSGGGGSHHHHHHHHHH
notes: Soluble fusion: cg06 D domain, linker, BCMA extracellular domain, linker, HIS tag; also called CD123(cg06)-BCMS-HIS tag

Further lines, the binder ahead of its results:

B1: α3D-BCMA Adapter (designed binder)
chain: DEGGGGSMGSWAEFKQRLAAIKTRLQALGGSEAELAAFEKEIAAFESELQAYKGKGNPEVEALRKEAAAIRDELQAYRHNGGGGSGGGGSGGGGSGMLQMAGQCSQNEYFDSLLHACIPCQLRCSSNTPPLTCQRYCNASVTNSVKGTNAGGGGSGGGGSGGGGSHHHHHHHHHH
notes: Soluble fusion: targetless α3D domain, linker, BCMA extracellular domain, HIS tag; also called none(α3D)-BCMA-HIS tag
binding result [1]: binds

B3: cg06-p26 Adapter (designed binder)
chain: DEHHHHHHHHHHKLENLYFQGGGGGSMGSWDEFGRRLYAIEWRLYALGGSEAELAAFEKEIAAFESELQAYKGKGNPEVEKLREIAAVIRSNLQAYRHNGGGGSGGGGSGGGGSLEKCFQTENPLECQDKGEEELQKYIQESQALAKRSCGLFQKLGEYYLQNAFLVAYTKKAPQLTSSELMAITRKMAATAATCCQLSEDKLLACGEGAADIIIGHLCIRHEMTPVNPGVGQCCTSSYANRRPCFSSLVVDETYVPPAFSDDKFIFHKDLCQAQGVALQTMKQEFLINLVKQKPQITEEQLEAVIADFSGLLEKCCQGQEQEVCFAEEGQKLISKTRAALGV
notes: Soluble fusion: HIS tag, cg06 D domain, linker, p26; also called cg06-AFP (p26) Adapter; CD123 (cg06)-AFP (p26) Adapter
binding result [3]: binds
